Publication PMC4066409

Experiments:
[1] = system: NZF-1-F2F3 H515Q; experiment: fluorescence anisotropy; conditions: not given in the material (ESI)
[2] = system: NZF-1-F2F3 H559Q; experiment: fluorescence anisotropy; conditions: not given in the material (ESI)

Question: For βRAR DNA, which Kd [1] is on record?
Answer: 3 µM

Question: And the Kd [2]?
Answer: 3.7 µM
